± gives the half width of the 95% confidence interval.
Assay: folding stability dG unfold from chymotrypsin proteolysis; higher = more stable
Procedure, shortened: (§1)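 Only designs with AlphaFold2 dimer inter-PAE above 15 were retained; each was a mini-protein under 80 residues with no cysteine, in a PA-tagged cDNA display construct. After digestion with trypsin and chymotrypsin and sequencing, K50 was inferred by Bayesian fitting of counts, and unfolding free energy was derived per protease or combined against a sequence-predicted unfolded-state K50 and a shared folded-state K50.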

Row | Sequence | folding stability dG unfold
1 | SAGGSAGGTSVADELEEEFKAKGYPAEVTVTKLPDDTTLVTVTVTDPKTGKSTTTTVTVSPAEASAGGSAGG [r6_692_JUSTAS] | 1.01 ± 0.12 kcal/mol
2 | SAGKKIELTFRNPDGWMIRITIEKKPNGGFQITEITWEPYPNGRMSAKIYVPNGKTIEVNSWDDILDALSAG [r5_618_TrROS] | 2.57 ± 0.075 kcal/mol
3 | SAGGSAGGSAGKKVKISLILIAKSPEEAEEAAKAIKEAFGSEDVEVDIIEIPAKLGPGKLSAGGSAGGSAGG [r17_285_TrMRF] | 0.252 ± 0.12 kcal/mol
4 | SAAFKGKNGKTIKITAKVKPNELTPEQVKELALAAVKNIFPENEKVEVKVKVEKLPNGEVLVYVEVKAESAG [r14_389_TrMRF] | 0.342 ± 0.17 kcal/mol
5 | SAGGSGQKFEIDRMIHIPLPNGRMLYIMRMKNPIMIMEFNGDNFRPVATVPNDDIPPEIRDLIKKLSAGGSA [r2_133_TrROS] | 2.25 ± 0.11 kcal/mol
6 | SAGGSIETIAERARDLARELNPDDGKEYPITIEIRDPENNRPIRIKISVRYDPDGKIKKVKFTKFEPYSAGG [r13_770_TrROS] | 1.04 ± 0.11 kcal/mol
7 | SAGGSAKKKEVKELTLVIKVKTEEEALKAAEELIRKLLPPDAEIVEVKVEKVKPGEVYITVKVRLKSAGGSA [r15_183_TrROS_Hall] | 3.99 ± 0.14 kcal/mol
8 | SAGGSAMVMITIKIKFPGNEVEINMPAEDLDELLSHPELGDNFEITEIEVMPIPPPPVDPEQAEEKSAGGSA [r15_460_TrROS] | 0.885 ± 0.11 kcal/mol
9 | SMSPEALKKANEFAEYIAEHFKNWNIEIDVEVEWDPDGEITIRAKIEMRPPPPPPPKPKRDPNGKWKWEGSA [r9_82_TrROS] | 2.3 ± 0.23 kcal/mol
10 | SAGGSAGGSAGMLWIHDPESGTLVMLHPKPDGEVNVQVWQFDPDNGKPEIKTVPADNIEASAGGSAGGSAGG [r11_285_TrROS] | 1.22 ± 0.18 kcal/mol
11 | SAMVEVRIEYDEETGEIRIEVRAEEEGEELTEEEIEELARELAEELGLPVEIKEIRVEKAPEVEEVVLESAG [r14_556_TrROS_Hall] | 0.757 ± 0.1 kcal/mol
12 | SAGGGMEIRLTIYRVDPETGVETSVEKEVTLEEAKEIVKEIPEEGEYTVRVTRPDRPEDVSPEELKLLSAGG [r13_254_JUSTAS] | -0.0215 ± 0.16 kcal/mol
13 | SAKIKIEKKEDGTIVIEVEAESEEEAEEAVKELVKELEKKGIKVEVVEVKIEKDPEKKGKYRVTIVIKKSAG [r14_119_TrROS_Hall] | 4.39 ± 0.18 kcal/mol
14 | SAMTVTSSVTTQPVPDSSDTVTYTNITVTIGNQTVTYTETVTYSSTDPTLRTVTTLLPDGTTVTTTVPVGSA [r9_897_JUSTAS] | 2.6 ± 0.084 kcal/mol
15 | SAGGSAGGSAFKLPPGKKITIFFDPENGNFAIMVPDGNERRVPMPAEELIKLGFPVEIIGPWSAGGSAGGSA [r18_125_TrROS] | 0.566 ± 0.25 kcal/mol
16 | SAGGSAGGSAVTIYIPWDEILEELGLPPEDVEYKPMKNGSYSFKYKNGKPVTIIMPPEDFKSAGGSAGGSAG [r3_477_TrROS] | 1.07 ± 0.2 kcal/mol
17 | SAGGSAGGSGSSSMPVTVEVKPLATEVDPSNGLVTVTELVTVTRGDTTTLTVTTTTLPPGAPASAGGSAGGS [r12_1010_JUSTAS] | 0.00037 ± 0.064 kcal/mol
18 | SAGGSAGGSAGGERVVRFPYTGTLEDVLEAARRLRRLGGVEVGYDPENGVLLARFKGGGLSAGGSAGGSAGG [r7_219_TrMRF] | 1.6 ± 0.046 kcal/mol
19 | SAGGSAGGSAMTIKVEVTVKVKVKLENGETKEKEVKVTVEIELPPLTKEELEKNKELLKKLLSAGGSAGGSA [r18_114_TrROS_Hall] | 2.53 ± 0.08 kcal/mol
20 | SAGGSAGGSMKVSPASRSEFDGSRVITITVTKEGTGTTTDITIPFSPDEPDVDEVAKAIAESLSAGGSAGGS [r12_415_JUSTAS] | 1.12 ± 0.023 kcal/mol
21 | SAGGSAEELAKELAEKEGVKEVKVTVIKNKNGKLVLKVENKETNKTYEIELPEGAEVVEEITLKVKSAGGSA [r2_74_TrROS_Hall] | 1.23 ± 0.061 kcal/mol

Assay: folding stability dG unfold (combined trypsin and chymotrypsin); higher = more stable
Procedure, shortened: as §1

Row | Sequence | folding stability dG unfold
22 | SAGGSAGGSAGGMIIKINGKYYKIKKIEKNPNGKYTITTENGKKYEFKNVKIFSEEELKSAGGSAGGSAGGS [r10_1151_TrROS_Hall] | 3.86 ± 0.18 kcal/mol
23 | SAGGSMVIEAEIEFPDMTPEEVEERAEEIAEAAAEFARKKGFPIKKVEADVEVFPGEGVVKVTVTLEGSAGG [r13_212_TrMRF] | 0.611 ± 0.11 kcal/mol
24 | SAGEEIERLLKEIEEAVRKAYPDKVVKVDLVKVELRPVLVVDPGTPRIEERTEIFLEVKVTVTHPDELSAGG [r19_293_TrMRF] | 2.63 ± 0.087 kcal/mol
25 | SAGGSAGGMTTTEISTKKLPDGTWATTVTTTTITATNGVPVTTSTPTTIINPGDPSVAIAAALSSAGGSAGG [r6_129_JUSTAS] | -0.173 ± 0.057 kcal/mol
26 | SAGGDPIEDIVKEIAEEHGYPIKNVEVEPVDPNTLVVEVQMPNGYRIKIEIPYDPDGDLNINVEWEPSAGGS [r8_284_TrROS] | 1.65 ± 0.23 kcal/mol
27 | SAGGMITLTLPIPAEFLEKHGLDEAKKIVLEKAKEELKKLGLSEKYPIKKIEITPEPESLTATIVILSAGGS [r16_368_JUSTAS] | 2 ± 0.04 kcal/mol
28 | SAKKTVKLKIEIYKVKVEKLKDGKEKITEVEKIAELEIEAEVDEDGKVTIRIDGKEIEVPAGTSLEELLSAG [r14_909_TrROS_Hall] | 2.76 ± 0.18 kcal/mol
29 | SMVITLPVEDEEKLKELLDELKEQLEKAEEEGLETVTITITLEDGETLEITIDKNMTVEELLEQLEKALESA [r9_127_TrROS_Hall] | 2.61 ± 0.29 kcal/mol
30 | SAGGSAGGSAGGGTAEELAKELEDLGYKVKLEPEGDYLLLTVTDPDNDKPYVILLDPETISAGGSAGGSAGG [r7_0_TrMRF] | 0.991 ± 0.035 kcal/mol
31 | SAGMEPTTITVDVTIPPEVFARLSEEELKEKVLAELGIPESLPVEVEISRKEVKLDGKTVYVVPMTIVGSAG [r14_334_JUSTAS] | 0.407 ± 0.089 kcal/mol

Source: the supplement of paper PMC12764529
